For orientation: stoichiometry N means the number of molecules, sites or subunits per partner or assembly.

Data on two molecules can be found in paper PMC2515308, “Structural characterization of CA1462, the Candida albicans thiamine pyrophosphokinase” (BMC Structural Biology, 2008).

Series [1] concerns the target Candida albicans thiamine pyrophosphokinase CA1462 (Candida albicans). As to the kind of experiment: SEC; gel filtration of the purified TPK proteins on a Sephacryl S200 HR column. In general terms: SEC sorts molecules by how far they enter the pores of the column.
Series [2] concerns the molecule itself. The description is as above.

“Candida albicans thiamine pyrophosphokinase CA1462 (enzyme)” gave a stoichiometry N in series [1] of 2.

B1: Saccharomyces cerevisiae thiamine pyrophosphokinase YOR143C (enzyme)
chain: GHHHQLSEECIENPERIKIGTDLINIRNKMNLKELIHPNEDENSTLLILNQKIDIPRPLFYKIWKLHDLKVCADGAANRLYDYLDDDETLRIKYLPNYIIGDLDSLSEKVYKYYRKNKVTIIKQTTQYSTDFTKCVNLISLHFNSPEFRSLISNKDNLQSNHGIELEKGIHTLYNTMTESLVFSKVTPISLLALGGIGGRFDQTVHSITQLYTLSENASYFKLCYMTPTDLIFLIKKNGTLIEYDPQFRNTCIGNCGLLPIGEATLVKETRGLKWDVKNWPTSVVTGRVSSSNRFVGDNCCFIDTKDDIILNVEIFVDKLIDFLQLDGDLEAA
On to B1, for which the “stoichiometry N” value in series [2] came out at 2.
